Among the data in paper PMC3546728, “Bacterial Over-Expression and Purification of the 3′phosphoadenosine 5′phosphosulfate (PAPS) Reductase Domain of Human FAD Synthase: Functional Characterization and Homology Modeling” (International Journal of Molecular Sciences, 2012) are Km and kcat values, retold here.

What all share (test): purified protein
What all share (format): biochemical, Homo sapiens

The subject of data set [1] is T1, Cc1cc2nc3c(=O)[nH]c(=O)nc-3n(C[C@H](O)[C@H](O)[C@H](O)COP(=O)(O)O)c2cc1C.
T1 construct: C-terminal PAPS reductase domain, residues 329-587; vector pH6EX3; E. coli Rosetta (DE3); theoretical 31499 Da, ~28 kDa on SDS-PAGE
The conditions noted are these: 100 μM ATP, 5 mM MgCl2, 50 mM Tris/HCl pH 7.5, 37 °C.

The subject of the next data set is T2, O=P(O)(O)OP(=O)(O)O.
T2 construct: C-terminal PAPS reductase domain, residues 329-587; vector pH6EX3; E. coli Rosetta (DE3); theoretical 31499 Da, ~28 kDa on SDS-PAGE
The note with it: reverse reaction, 0.5 μM FAD, 5 mM MgCl2, 50 mM Tris/HCl pH 7.5, 37 °C.

In data set [2] the test system is T3, Nc1ncnc2c1ncn2[C@@H]1O[C@H](COP(=O)(O)OP(=O)(O)OP(=O)(O)O)[C@@H](O)[C@H]1O.
T3 construct: C-terminal PAPS reductase domain, residues 329-587; vector pH6EX3; E. coli Rosetta (DE3); theoretical 31499 Da, ~28 kDa on SDS-PAGE
The conditions noted are these: 2 μM FMN, 5 mM MgCl2, 50 mM Tris/HCl pH 7.5, 37 °C.

Sequence of 6-His-Δ1-328-hFADS (Homo sapiens) (chain, as listed by the source mutant): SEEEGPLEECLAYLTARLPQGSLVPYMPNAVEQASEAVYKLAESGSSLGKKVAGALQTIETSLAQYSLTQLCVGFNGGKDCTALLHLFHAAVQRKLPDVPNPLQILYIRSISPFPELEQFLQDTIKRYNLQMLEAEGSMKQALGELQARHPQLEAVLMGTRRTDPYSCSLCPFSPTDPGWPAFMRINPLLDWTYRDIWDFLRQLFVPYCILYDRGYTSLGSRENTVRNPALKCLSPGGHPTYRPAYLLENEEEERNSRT

As a reminder, the Km is the concentration of substrate that gives half-maximal velocity. In general, kcat refers to the number of substrate molecules converted per active site and unit of time at saturation. In the case of 6-His-Δ1-328-hFADS (Homo sapiens), the Km in data set [1] was found to be 0.24 ± 0.06 µM; with O=P(O)(O)OP(=O)(O)O it was 92.0 ± 0.5 µM; in data set [2] it was 6.23 ± 1.5 µM. Also, the kcat was found to be 0.042 ± 0.001 s⁻¹ in data set [1], 0.0037 ± 0.0009 s⁻¹ in the data set with O=P(O)(O)OP(=O)(O)O and 0.042 ± 0.001 s⁻¹ in data set [2].
